# According to paper PMC9546532 (Proceedings of the National Academy of Sciences of the …, 2022):
# T1: Ela1^(1-143) of the Elc1/Ela1^(1-143) complex (separate chains) (S. cerevisiae, UniProt P53861 1-143)
# T1 sequence (looked up): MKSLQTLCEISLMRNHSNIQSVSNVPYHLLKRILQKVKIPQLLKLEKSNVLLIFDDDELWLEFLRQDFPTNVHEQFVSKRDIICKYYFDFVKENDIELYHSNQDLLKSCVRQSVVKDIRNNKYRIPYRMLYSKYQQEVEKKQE
# Target: T1, Ela1^(1-143) of the Elc1/Ela1^(1-143) …
# Experiment: SEC + AUC
binder,measurement,value
"Elc1 of the Elc1/Ela1^(1-143) complex (separate chains) (natural protein, S. cerevisiae, UniProt Q03071 1-99, looked up) MSQDFVTLVSKDDKEYEISRSAAMISPTLKAMIEGPFRESKGRIELKQFDSHILEKAVEYLNYNLKYSGVSEDDDEIPEFEIPTEMSLELLLAADYLSI",binding result,binds
